Measured values reported in the supplement of paper PMC11865577.

Assays:
Experiment in all cases: pull-down binding Z-score (relative to library population); higher = stronger binding
Conditions in all cases: RNA library: Library-2
[1] = system: TO-3-N3 (biotin conjugate)
Procedure, shortened: (§1)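 Streptavidin beads with 100 pmol of biotin-conjugated small molecule were incubated for 60 min at 25 °C with 1 μg of heat-folded Cy5- or Cy3-end-labelled RNA library in phosphate/NaCl/KCl buffer. Bound RNA was eluted in hot SDS after three washes and hybridised to a DNA barcode microarray at 55.5 °C for 20 h. Each binding score is a library-referenced Z-score, computed after beads-only subtraction and a trimmed mean of barcoded replicate probes.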

[2] = system: TO-3-N3-2 (biotin conjugate)
Procedure, shortened: as §1

[3] = system: TO-N3 (biotin conjugate)
Procedure, shortened: as §1

[4] = system: TO-N3-2 (biotin conjugate)
Procedure, shortened: as §1

| Sequence | pull-down binding Z-score [1] | pull-down binding Z-score [2] | pull-down binding Z-score [3] | pull-down binding Z-score [4] |
| --- | --- | --- | --- | --- |
| GGCUAUGUAACACAUGGCU | -0.114 | -0.449 | -0.351 | -1.06 |
| CCUUUAGUACCUUUCUGGAUAACAAUUGCUUAUAUCAUUUGUAUUUCCACAAAGCAUUUCUAUUGG | -0.884 | -0.843 | -1.06 | -0.78 |
| GUUUUUGUACACAAUUAAACCGUGCUUUAACUGGAAUAGCUGUUGAACAAGACAAAAAC [DMSMaPseq_invitro_SARS-CoV-2_Motif_424] | 0.247 | -0.127 | 0.21 | -0.336 |
| GGAUGGUUACAGGACUAAGGAACAAUCCGUCC [IAV_invivo_HA_4_Motif_14+IAV_invivo_HA_4_Motif_14] | -0.461 | -0.14 | -0.295 | -0.0521 |
| UGGAAUUGCAAUGUCGAUAGAUAUCCUGCUAAUUCCA | -0.0259 | 0.0197 | 0.0215 | -0.0708 |
| AUGGCUGAUCAAGCUAU [DMSMaPseq_invitro_SARS-CoV-2_Motif_216] | -0.238 | -0.583 | -0.208 | -0.747 |
| GAGCUGCCCUGUCGGUGAAGCUC [IAV_invivo_NA_6_Motif_6+IAV_invivo_NA_6_Motif_6] | 0.171 | -0.0787 | 0.217 | 0.384 |
| GCUUCAAGAGAGC | -0.0727 | -0.171 | -0.0808 | -0.212 |
| GCUUCUAGAAAGUGAACUCGUAAUCGGAGCUGUGAUCCUUCGUGGACAUCUUCGUAUUGCUGGACACCAUCUAGGACGC | -0.191 | 0.191 | 0.335 | 1.23 |
| UCCUUACAUGGA | -0.557 | -0.672 | -0.321 | -1.16 |
| UGUGGACAUGUCAAUGACAUAUGGACAACAGUUUGGUCCAACUUAUUUGGAUGGAGCUGAUGUUACUAAAAUAAAACCUCAUAAUUCACA | -0.618 | -0.162 | -0.544 | -0.453 |
| AAUUAUGAAGAUUUACUCAUUCGUAAGUCUAAUCAUAAUU | -0.0299 | -0.3 | -0.429 | -0.858 |
| CAUGUGAUCUGCACCUCUGAAGACAUG | 0.111 | 0.185 | 0.248 | 0.33 |
| CGGCAUCAUAUGGGUUGCAACUGAGGGAGCCUUGAAUACACCAAAAGAUCACAUUGGCACCCGCAAUCCUGCUAACAAUGCUG [SHAPE_invitro_SARS-CoV-2_Motif_522] | -0.511 | 0.0568 | -0.253 | 0.334 |
| UACAAUUUGCCUAUGCCAACAGGAAUAGGUUUUUGUA | 0.38 | -0.176 | -0.122 | -1.3 |
| CGUGGUAUUCUUGCUAGUUACACUAGCCAUCCUUACUGCG | -0.913 | -0.37 | -1.1 | -0.427 |
| GUUGCUGUACCUACAGGUUAUGUUGAUACACCUAAUAAUACAGAUUUUUCCAGAGUUAGUGCUAAACCACCGCCUGGAGAUCAAU [SHAPE_invitro_SARS-CoV-2_Multi_51_ComplexLevel_1] | 0.475 | -0.139 | 0.691 | 0.329 |
| GGGGUGAAGAGGAUACUUACCUG [U1snRNP5ss-12] | 0.145 | 0.365 | 0.427 | 0.523 |
| CUGGGAAACUGUUAAAAUUCAGUGGUCCCAG [IAV_invivo_PB2_1_Motif_27+IAV_invivo_PB2_1_Motif_27] | -0.682 | -0.0981 | -0.972 | -0.97 |
| GGCCAUUAGAGGCC [IAV_invivo_PB2_1_Motif_29+IAV_invivo_PB2_1_Motif_29] | 0.0791 | -0.69 | -0.257 | -1.06 |
| ACCAGUUAACUGGU [SHAPE_invitro_SARS-CoV-2_Motif_121] | -0.713 | -0.55 | -1.1 | -1.19 |
| AUGUACUUGGAUUGGCUGCAAUCAUGCAAUUGUUUUUCAGCUAUUUUGCAGUACAU | -0.182 | -0.577 | -0.401 | -0.271 |
| ACGACGACUACUAGCGUGCCUUUGUAAGCACAAGCUGAUGAGUACGAACUUAUGUACUCAUUCGUUUCGGAAGAGACAGGUACGUUAAUAGUUAAUAGCGU | -0.319 | -0.333 | -0.304 | -0.217 |
| CAGCAAGAACUG [DMSMaPseq_invitro_SARS-CoV-2_Motif_202] | -0.324 | -0.578 | -0.633 | -0.724 |
| CUGCUUUUGGCUUAGUUGCAG | 0.285 | 0.206 | 0.125 | -0.231 |

| Sequence | pull-down binding Z-score [1] | pull-down binding Z-score [2] | pull-down binding Z-score [3] | pull-down binding Z-score [4] |
| --- | --- | --- | --- | --- |
| GGUUGUAUGGUACAAGUAACUUGUGGUACAACU | -0.51 | -0.128 | -0.61 | -0.264 |
| GUCUUUCCAGGGGC [IAV_invivo_NP_5_Motif_23+IAV_invivo_NP_5_Motif_23] | -0.313 | -0.414 | -0.393 | -0.0606 |
| GGUGCUCCCAAGAGGGAAGCU [IAV_invivo_NP_5_Motif_18+IAV_invivo_NP_5_Motif_18] | -0.0194 | -0.165 | 0.405 | 0.775 |
| GCCUGUGUAAAUGGU [IAV_invivo_NA_6_Motif_8+IAV_invivo_NA_6_Motif_8] | -0.344 | -0.297 | -0.471 | -0.434 |
| GCUCUCUGAUGC [IAV_invivo_NP_5_Motif_10+IAV_invivo_NP_5_Motif_10] | -0.607 | -0.589 | -0.672 | -0.464 |
| GAGGUGAUGCAGAUACUUACCUG [U1snRNP5ss-20] | 0.762 | 0.169 | 0.68 | 0.343 |
| CGGGACCAACGAGGAAAUGUACUACUGUCUCCCG [IAV_invivo_PB2_1_Motif_23+IAV_invivo_PB2_1_Motif_23] | -0.431 | 0.118 | -0.196 | 0.354 |
| CCUGUGAACAGAUUGCUGACUCCCAGCAUCGGUCUCAUAGG [IAV_invivo_M1_M2_7_Motif_10+IAV_invivo_M1_M2_7_Motif_10] | -0.767 | -0.605 | -0.943 | -0.458 |
| CUCUCAUUUUGUUAACUUAGACAACCUGAGAG | -0.827 | -0.35 | -1.13 | -1.2 |
| UGAUGCAGCCAUGCAACGUAAGUUGGAAAAGAUGGCUGAUCA | -1.03 | -0.36 | -1.16 | -0.974 |
| CGGGGCGGGAGGGGAAGGGACGCCCG [hsa-mir-6850] | 6.93 | 7.75 | 6.39 | 5.1 |
| GGCGAUAGUUGUAAUAACUAUAUGCU | -1.04 | -0.564 | -1.31 | -0.976 |
| UAGAGGUACAACAGUACUUUUA | -0.813 | -0.423 | -1.12 | -1.28 |
| GUUAACUGGUUAUAAGAAACCUGCUUCAAGAGAGCUUAAAGUUAC | 0.0276 | 0.092 | -0.0514 | -0.112 |
| CUACACUAGUGCCACAAGAGCACUAUGUUAG | -0.402 | -0.213 | -0.127 | 0.417 |
| CUGUUGAUUCAUCACAG | 1.37 | 0.174 | 1.14 | -0.421 |
| GGAUGUCAAUCC [IAV_invivo_PB1_2_Motif_2+IAV_invivo_PB1_2_Motif_2] | 0.302 | -0.17 | 0.0736 | -0.856 |
| GGCCUCACGGCC [IAV_invivo_PB1_2_Motif_9+IAV_invivo_PB1_2_Motif_9] | 0.0835 | -0.354 | -0.332 | -0.914 |
| UGUUACUUUAUAUUGACAUUAAUGGCAAUCUUCAUCCAGAUUCUGCCACUCUUGUUAGUGACA | -0.354 | -0.104 | -0.585 | -0.868 |
| CAGACAACACAUUUGUGUCUG | -1.07 | -0.67 | -1.45 | -1.8 |
| GGGAAAGAAGUCCU [IAV_invivo_HA_4_Motif_8+IAV_invivo_HA_4_Motif_8] | -0.398 | -0.278 | -0.705 | -0.872 |
| GUAGAGGAGGCAAAGACAGUGCUUAAAAAGUGUAAAAGUGCCUUUUAC | -0.449 | 0.448 | -0.193 | 0.576 |
| CGGAUUCUGAAAGAAGAAUCCG [IAV_invivo_NS1_NEP_8_Motif_5+IAV_invivo_NS1_NEP_8_Motif_5] | 0.432 | -0.255 | 0.0717 | -0.902 |
| UCAAUUAUUAUAAGAAAGUUGA | 0.154 | -0.0592 | 0.0296 | -0.425 |
| UUACAGAAGAGGUUGGCCACACAGAUCUAAUGGCUGCUUAUGUAG | -0.523 | -0.244 | -0.376 | -0.138 |

| Sequence | pull-down binding Z-score [1] | pull-down binding Z-score [2] | pull-down binding Z-score [3] | pull-down binding Z-score [4] |
| --- | --- | --- | --- | --- |
| UCUGCACUGUUAGCGGGUACAAUCACUUCUGGUUGGACCUUUGGUGCAGG | -0.66 | -0.38 | -0.815 | -1.07 |
| UAUUUGCCUAUAGAUA | 0.0252 | -0.192 | -0.128 | -0.821 |
| CCUUGUAGGUUUGUUACAGACACACCUAAAGG | -0.369 | -0.655 | -0.262 | -0.614 |
| GCGCAGCCAGAAACUGGCCGCGC [mismatch-AC] | -0.43 | -0.295 | -0.746 | -1 |
| AACGGGGCGGGCCCUGGGCGGGGUAA [G4_2A2_VEGF-Pu22-mt2] | 8.94 | 10.6 | 7.22 | 5.33 |
| GCAGUAAGUCUGAUACUUACCUG [U1snRNP5ss-9] | 0.85 | 0.129 | 0.947 | 0.892 |
| ACAUGCCAAUUUAGAUUCUUGCAAAAGAGUCUUGAACGUGGUGUGU | -1.07 | -0.712 | -1.48 | -1.62 |
| GGGUAGGGUUUGGGGGAGAGUGUGGGCUGGGGUUCAGGGACA [pre-miRNA-1229_SNP_FL] | 6.68 | 7.5 | 6.27 | 4.79 |
| GCGCUGCCAGAAACUGGCUAGCGC [bulge-U] | 0.183 | -0.328 | -0.0999 | -0.75 |
| ACUAAAAAUGU [SHAPE_invitro_SARS-CoV-2_Motif_381] | 0.184 | -0.343 | -0.167 | -0.642 |
| CCGAAAUUAUGUCUUUACUGGUUAUCGUGUAACUAAAAACAGUAAAGUACAAAUAGG | -0.303 | -0.0158 | -0.399 | -0.428 |
| GAUUAUUACAGAUC [DMSMaPseq_invitro_SARS-CoV-2_Motif_169] | -0.377 | -0.191 | -0.695 | -1.16 |
| GCGCUGCCAGAAACUGGCAAGCGC [bulge-A] | -0.289 | -0.541 | -0.493 | -1.12 |
| UAUCCAAACGCAAGCUUCGAUAAUUUUAAGUUUGUAUGUGAUA [DMSMaPseq_invitro_SARS-CoV-2_Motif_115] | 0.127 | 0.145 | -0.225 | -0.609 |
| GCUGGUGCACUUGCCAGU [IAV_invivo_M1_M2_7_Motif_8+IAV_invivo_M1_M2_7_Motif_8] | -0.522 | -0.545 | -0.408 | -0.0123 |
| GUUGAUUUUUGUGGAAAGGGCUAUCAUCUUAUGUCCUUCCCUCAGUCAGC [SHAPE_invitro_SARS-CoV-2_Motif_447] | -1.02 | -0.325 | -1.18 | -0.89 |
| UGACAUUACACCAUGUUCUUUUGGUGGUGUCA | -0.87 | -0.423 | -1.29 | -1.47 |
| GUAGACAAUUCUAGUCUUAC [SHAPE_invitro_SARS-CoV-2_Motif_131] | 0.702 | -0.243 | 0.441 | -0.316 |
| GGUGUUUAUUACC | -0.454 | -0.382 | -0.968 | -0.855 |
| CAACUUACAAAUUAAAUGUUG | -0.448 | -0.152 | -0.698 | -1.06 |
| AAAUUGCCGAUAAGUAUGUCCGCAAUUU | -0.317 | -0.436 | -0.683 | -1.13 |
| GCGCCGCCAGAAACUGGCUGCGC [mismatch-CU] | 0.308 | -0.0148 | 0.00381 | -0.671 |
| GCGCUGCCAGAAACUGGCGGCGC [mismatch-UG] | 0.983 | -0.0108 | 0.624 | -0.856 |
| AUAAAAUAGAAGAAUUAUUCUAUUCUUAU | -0.26 | -0.288 | -0.62 | -1.22 |
